Entries after “also recorded” stand apart in the source; their conditions may differ.
What was measured:
[1] = system: CEA positive LoVo parental line; assay: Cell based ELISA of secreted fusion protein, CEA positive cells; settings: increasing amounts of added fusion protein, listed as (A5B7-CPG2)2 fusion protein
Procedure: (§1) Cells were seeded into 96 well plates (Becton Dickinson Biocoat™ poly-D-Lysine, 35-6461) at a density of 1×10^4 cells per well in 100 μl normal culture media and left about 40 h at 37°. 100 μl of 6% formaldehyde was diluted in DMEM and left for 1 hour at 4°. Plates were centrifuged and washed 3 times in PBS containing 0.05% Tween™ by immersion soaking (first two washes for 2 minutes and the final wash for 5 minutes).
(§2) 100 μl of doubling dilutions of cell culture supernatant containing fusion protein or chimeric A5B7 anti-CEA were added to each well as appropriate and the plates incubated overnight at 4°. The plates were washed as described above and, in the case of chimaeric fusion proteins. 100 μl of 1:1000 dilution of HRP labelled anti-human kappa antibody (Sigma A-7164) was added and incubated for 2 hours at room temperature (an anti-CPG2 detection methodology can be used in the case of murine scFv fusion proteins). The plates were washed as described above and HRP detected using OPD substrate (Sigma P-8412). Colour was allowed to develop for about 5 min, stopped with 75 μl per well of 2M H2SO4 and OD read at 490 nm.
(§3) In the case of the (A5B7-CPG2)2 fusion protein, material was produced in the supernatant from recombinant Colo32ODM tumour cells (CEA-ve). The fusion protein content was measured by use of the CEA ELISAs described above. […]

CEA negative cell lines = assay: Cell based ELISA of secreted fusion protein, CEA negative cells; settings: increasing amounts of added fusion protein; listed as (A5B7-CPG2)2 fusion protein
Procedure: as §1, §2, §3

CPG2 = settings: COS-7 transient expression supernatant
[2] = target: T1, human carcinoembryonic antigen (CEA) (Homo sapiens, UniProt P06731); assay: CEA-binding ELISA, anti human kappa light chain reporter antibody; settings: COS-7 transient expression supernatant
T1 sequence (P06731 35-676): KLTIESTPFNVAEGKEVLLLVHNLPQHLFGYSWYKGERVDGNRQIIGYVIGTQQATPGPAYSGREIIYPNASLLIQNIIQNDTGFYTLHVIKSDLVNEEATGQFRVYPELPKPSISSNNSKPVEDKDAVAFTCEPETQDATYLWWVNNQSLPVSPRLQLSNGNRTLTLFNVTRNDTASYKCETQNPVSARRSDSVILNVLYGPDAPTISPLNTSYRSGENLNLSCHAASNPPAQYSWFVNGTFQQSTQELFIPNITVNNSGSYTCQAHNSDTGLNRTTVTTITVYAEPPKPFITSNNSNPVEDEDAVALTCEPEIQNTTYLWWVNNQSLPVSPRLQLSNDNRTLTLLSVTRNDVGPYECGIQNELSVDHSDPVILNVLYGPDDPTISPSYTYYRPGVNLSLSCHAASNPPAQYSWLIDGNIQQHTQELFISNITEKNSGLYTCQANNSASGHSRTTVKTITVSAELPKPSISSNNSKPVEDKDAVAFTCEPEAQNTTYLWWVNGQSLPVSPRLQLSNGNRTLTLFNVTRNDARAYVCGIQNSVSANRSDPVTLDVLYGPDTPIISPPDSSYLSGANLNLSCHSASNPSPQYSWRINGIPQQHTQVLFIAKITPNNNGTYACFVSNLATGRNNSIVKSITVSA
Procedure: For the CEA ELISA each well of a 96 well immunoplate (NUNC MAXISORB™) was coated with 50 ng CEA in 50 mM carbonate/bicarbonate coating buffer pH9.6 (buffer capsules—Sigma C3041) and incubated at 4° overnight. The plate was washed three times with PBS-TWEEN™ (PBS+0.05% TWEEN™ 20) and then blocked 150 μl per well of 1% BSA in PBS-TWEEN™ for 1 hour at room temperature. The plate was washed three times with PBS-TWEEN™, 100 μl of test sample added per well and incubated at room temperature for 2 hours. The plate was washed three times with PBS-TWEEN™, 100 μl per well of a 1/500 dilution of HRPO-labelled goat anti-human kappa antibody (Sigma A 7164) was added in 1% BSA in PBS-TWEEN™ and incubated at room temperature on a rocking platform for at least 1 hour. The plate was washed three times with PBS-TWEEN™ and then once more with PBS. To detect binding, add 100 μl per well of developing solution (one capsule of phosphate-citrate buffer—Sigma P4922—dissolved in 100 ml H2O to which is added one 30 mg tablet o-phenylenediamine dihydrochloride—Sigma P8412) and incubated for up to 15 minutes. The reaction was stopped by adding 75 μl 2M H2SO4, and absorbance read at 490 nm.

[3] = Enzyme activity in plasma samples (methotrexate turnover, HPLC); format: in vivo; settings: except when tumour enzyme activity exceeded 2.0 U/g
Procedure: To act as a standard for the assay, a CPG2 enzyme standard curve was prepared in 20% normal plasma to the following concentrations: 0.2, 0.4, 0.6, 0.8 and 1.0 U/ml. Similarly all test plasma samples were also diluted to 20% normal plasma. Further dilutions of these samples e.g. neat 1/10, 1/20 and 1/50 were also made using 20% normal serum. 200 μl aliquots of each CPG2 standard and test sample dilutions were equilibrated to 30°. 2 μl of 10 mM MTX was added to each of the tubes and mixed well. […]. The reaction was stopped after exactly 10 minutes (to increase the sensitivity of the assay the incubation time can be increased to 30 minutes) by adding 500 μl ice cold methanol+0.2% TFA and assayed for product using HPLC detection as described above in Example 10.

B1: (A5B7 Fab-CPG2)2 fusion protein: chimaeric A5B7 anti-CEA Fab, heavy chain Fd linked via (G4S)3 linker to CPG2 R6, dimerised through CPG2 (antibody)
heavy: EVKLVESGGGLVQPGGSLRLSCATSGFTFTDYYMNWVRQPPGKALEWLGFIGNKANGYTTEYSASVKGRFTISRDKSQSILYLQMNTLRAEDSATYYCTRDRGLRFYFDYWGQGTTLTVSSASTKGPSVFPLAPCSRSTSESTAALGCLVKDYFPEPVTVSWNSGALTSGVHTFPAVLQSSGLYSLSSVVTVPSSNFGTQTYTCNVDHKPSNTKVDKTVGGGGSGGGGSGGGGSQKRDNVLFQAATDEQPAVIKTLEKLVNIETGTGDAEGIAAAGNFLEAELKNLGFTVTRSKSAGLVVGDNIVGKIKGRGGKNLLLMSHMDTVYLKGILAKAPFRVEGDKAYGPGIADDKGGNAVILHTLKLLKEYGVRDYGTITVLFNTDEEKGSFGSRDLIQEEAKLADYVLSFEPTSAGDEKLSLGTSGIAYVQVQITGKASHAGAAPELGVNALVEASDLVLRTMNIDDKAKNLRFQWTIAKAGQVSNIIPASATLNADVRYARNEDFDAAMKTLEERAQQKKLPEADVKVIVTRGRPAFNAGEGGKKLVDKAVAYYKEAGGTLGVEERTGGGTDAAYAALSGKPVIESLGLPGFGYHSDKAEYVDISAIPRRLYMAARLIMDLGAGK
light: QTVLSQSPAILSASPGEKVTMTCRASSSVTYIHWYQQKPGSSPKSWIYATSNLASGVPARFSGSGSGTSYSLTISRVEAEDAATYYCQHWSSKPPTFGGGTKLEIKRTVAAPSVFIFPPSDEQLKSGTASVVCLLNNFYPREAKVQWKVDNALQSGNSQESVTEQDSKDSTYSLSSTLTLSKADYEKHKVYACEVTHQGLSSPVTKSFNRGEC
- binding to CEA positive cells (OD 490 nm) [1]: increased levels of binding with increasing amounts of added fusion protein; also recorded: binds specifically to a CEA positive cell line in a dose dependant manner
- binding to CEA negative cells (OD 490 nm) (CEA negative cell lines): only constant background binding levels throughout; also recorded: do not bind to CEA negative lines
- CPG2 enzyme activity in cell supernatant (CPG2): CPG2 enzyme activity to be present in the cell supernatant
- CEA binding in anti-CEA ELISA [2]: binding of protein at levels commensurate with a bivalent A5B7 antibody molecule
- enzyme activity in plasma [3]: No activity was seen in the plasma

— patent US6339070B1, “Gene construct encoding a heterologous prodrug-activating enzyme and a cell targeting moiety” (Zeneca Limited, priority 1997, dated 2002)
